{"source": "the DeepSol protein solubility set", "data": [{"test": "soluble on expression in E. coli; label from the status in PepcDB or PDB records", "values": [{"sequence": "MGSDKIHHHHHHVTTQLKETPPSDTSSINLEAEFQASNIKEVLDKLDRELIGLKPVKTRIRETAALLLVDRVRKKLDLTAGAPSLHMSFTGNPGTGKTTVAQRMSEILHRLGYVREGHLVSVTRDDLVGQYIGHTAPKTKEVIKKAMGGVLFIDEAYYLYKPENERDYGAESIEILLQVMENNRDDLVVILAGYKDRMDKFFRSNPGMRSRIAHHIDFPDYSPDELVAIAKLMLAAQNYRLSAEAEKAFGEYIRLRMKMEHFANARSVRNALDRARLRQANRLFEGAKKNLSRTDLITIEAEDIRASRVFVEGAVDLDGDEGASRELSEESV", "soluble on expression in E. coli": "not soluble"}, {"sequence": "MGSDKIHHHHHHVVTPEDSPRYPYGNCLYVEDDIPAVLDLGAGGRAFQEIPCEKVQLALISHSHFDHLHGDSFFPRAGLYAGKEESKTYSDENEYLKFHGYELWAEMMPGIKRVAFSEVKPLPDDVPVKPGFRYIPLAGIFKDMERFQLGKTEITAIHLPGHTTGHYGFWIEKEGILFSGDMDLVVAGPWYSSNSADIGQLVSSVQRIREINPGLIVPSHRRLIFDKIEKRLDQYIGVVFKRQERILDLLKEAHTIDELLEYQMVFHGRRDIYLLFWEKMTLRNHIRFLLWEGMVEEVEKGRYKRC", "soluble on expression in E. coli": "not soluble"}, {"sequence": "MGSDKIHHHHHHYQPEKHAVVKSDRGDGRLLSTYAIVHEMLKDTHPQYAYRSGMSAQEFTQWQDGVRAAMVEIMKFPEIKRQPSPVCVKTEKKEGYILEKWEFYPFPKSVSTFLVLKPEHLKGAVPGVLCIPGSGRTKEGLVGEPGICDKLTEDYNNPKVSMALNMVKEGYVAVAVDNAAAGEASDLECYDKGWNYDYDVVSRFLLELGWSWLGYTSYLDMQVLNWMKAQSYIRKDRIVISGFSLGTEPMMVLGVLDKDIYAFVYNDFLCQTQERAVVMTKPDKENRRPFPNSIRHLIPGYWRYFNFPDVVASLAPRPIIFTEGGLDRDFRLVQSAYAASGKPENAEFHHYPKFADKAVRKDVEHLDEGLDSKTYFEAVNVDPPSHYFKNELVIPWLRKVLK", "soluble on expression in E. coli": "not soluble"}, {"sequence": "MGSIGSMGKPIEGFLVAAIQFPVPIVNSRKDIDHNIESIIRTLHATKAGYPGVELIIFPEYSTQGLNTAKWLSEEFLLDVPGKETELYAKACKEAKVYGVFSIMERNPDSNKNPYNTAIIIDPQGEIILKYRKLFPWNPIEPWYPGDLGMPVCEGPGGSKLAVCICHDGMIPELAREAAYKGCNVYIRISGYSTQVNDQWILTNRSNAWHNLMYTVSVNLAGYDNVFYYFGEGQICNFDGTTLVQGHRNPWEIVTGEIYPKMADNARLSWGLENNIYNLGHRGYVAKPGGEHDAGLTYIKDLAAGKYKLPWEDHMKIKDGSIYGYPTTGGRFGK", "soluble on expression in E. coli": "soluble"}, {"sequence": "MGSLNGGSPEGVESQDGVDHFRAMIVEFMASKKMQLEFPPSLNSHDRLRVHQIAEEHGLRHDSSGEGKRRFITVSKRAGSHHHHHH", "soluble on expression in E. coli": "soluble"}, {"sequence": "MGSSHHHHHHDYDIPTTENLYFQGHMATNLKSTAKLVKPIQYDEVIEVERIFADPAFIEQHRQRILASFKDAKESALYHELTHIVIKDNLFSCAMNAIVGYFEFNIDEAELKNVMEGLKRDVIQGAEDNTVQAIAEKIIKKALVFNHLQKEWKVEITDEVVKNVISLYYEKTNQSVREYLDDKQKFEGVRTALLEERMVLETINHFKFHFNLTGQLPN", "soluble on expression in E. coli": "soluble"}, {"sequence": "MGSSHHHHHHGGTGENLYFQGGSGSSSSSSLPAAASLPATHATPPGALSSSVVSSSAPMCTHLPLPPPPPQPQEQQANKRSLRNDTHAGQMLREQQQMMEQLMSTGLVQAADLLEFGFSAAELRAAGLHLPPPHHRAGEQTKGGLEAAQAERMADAHGEDSRRRGVPRKRAWCDDAAQARPQKNERVAPSPVVSGAAATTLSAAETTREPQTVAKSVATPALLSEETRARSLHAAKLVEQTQSLRRHRGDQDCARWLCYDDTDDEEVSSTASTGTSSGEATAALASMARAAETLPKARCNTALAFSGLDVAVVREIAQRLQDESGHDASVESRRTREYVESRENGNTPYM", "soluble on expression in E. coli": "not soluble"}, {"sequence": "MGSSHHHHHHGKTIFVIVPTNEEQVAFLEALAKQDELNFDWQNPPTEPGQPVVILIPSDMVEWFLEMLKAKGIPFTVYVEEGGSENLYFQGGGGGGAQCVRRLVLAATLAAAVALLLCTSSAPVARAAGTGDFTAAQRTNTLAVLQAFGRAIPKLGEKWAGNDFCSWEAVLCNAPDVYVSGISPTYAGTLPEMPVNVDYRHVVIKQLDFSEMGPGLSGTLPASWHSMTSLESLSIEKCESISGSVPPEWGSMTSLSVLNLRGTGISGTLPPQWSGMSKARSLQLQDCDLSGSLPSSWSAIPMLASVSLKGNKFCGVCRTRGIRRLVLLWTSRTSTRAATAWLLRTAQRPPLSPPPRQRPPRTSLTFPLRRGPRLSRLPQPALRHRLNPQPPLRHRLNPRPLLPQQTRRLLHQRRSARWMGVRCARGTPLRGARGAVRTTS", "soluble on expression in E. coli": "not soluble"}, {"sequence": "MGSSHHHHHHGKTIFVIVPTNEEQVAFLEALAKQDELNFDWQNPPTEPGQPVVILIPSDMVEWFLEMLKAKGIPFTVYVEEGGSENLYFQGGGGGGFVPNWYQHPDPALKYADDMEVYDYYQQYEAAKKAAREASTSSKKTAATSPALPRAKPHVTIA", "soluble on expression in E. coli": "soluble"}, {"sequence": "MGSSHHHHHHGKTIFVIVPTNEEQVAFLEALAKQDELNFDWQNPPTEPGQPVVILIPSDMVEWFLEMLKAKGIPFTVYVEEGGSENLYFQGGGGGGTCMMGLEIRPKVVSFAQEKALALRQENAASLTQHYRNVWFEQMNVMKFGSNCFTKGQLSRLFFCYPDPHWKRKNIRRRIISPGLVQEYAYWLRHGGLVYTVSDVAELEEWMVQCLDDSPLFRRLAEAELCTPEHKQVLEIVTGASEDAQRTARKGLQKHFAVHMRI", "soluble on expression in E. coli": "not soluble"}, {"sequence": "MGSSHHHHHHSSGENLYFQGHMDVLASGEKSRMLFERTKELFPGGVNSPVRAAVKPYPFYVKRGEGAYLYTVDGARIVDLVLAYGPLILGHKHPRVLEAVEEALARGWLYGAPGEAEVLLAEKILGYVKRGGMIRFVNSGTEATMTAIRLARGYTGRDLILKFDGCYHGSHDAVLVAAGSAAAHYGVPTSAGVPEAVARLTLVTPYNDVEALERVFAEYGDRIAGVIVEPVIANAGVIPPRREFLAALQRLSRESGALLILDEVVTGFRLGLEGAQGYFNIEGDIIVLGKIIGGGFPVGAVAGSREVMSLLTPQGKVFNAGTFNAHPITMAAGLATLKALEEEPVYSVSREAAKALEEAASEVLDRTGLPYTINRVESMMQLFIGVEEVSNAAQARKADKKFYVKLHEEMLRRGVFIAPSNLEAVFTGLPHQGEALEIAVEGLRSSLKTVLGS", "soluble on expression in E. coli": "soluble"}, {"sequence": "MGSSHHHHHHSSGLVPRGSHADYEVVHDTFEVNFDGWCNLGVDTYLTAVENEGNNGTRGMMVINRSSASDGAYSEKGFYLDGGVEYKYSVFVKHNGTGTETFKLSVSYLDSETEEENKEVIATKDVVAGEWTEISAKYKAPKTAVNITLSITTDSTVDFIFDDVTITRKGMAEANTVYAANAVLKDMYANYFRVGSVLNSGTVNNSSIKALILREFNSITCENEMKPDATLVQSGSTNTNIRVSLNRAASILNFCAQNNIAVRGHTLVWHSQTPQWFFKDNFQDNGNWVSQSVMDQRLESYIKNMFAEIQRQYPSLNLYAYDVVNAAVSDDANRTRYYGGAREPGYGNGRSPWVQIYGDNKFIEKAFTYARKYAPANCKLYYNDYNEYWDHKRDCIASICANLYNKGLLDGVGMQSHINADMNGFSGIQNYKAALQKYINIGCDVQITELDISTENGKFSLQQQADKYKAVFQAAVDINRTSSKGKVTAVCVWGPNDANTWLGSQNAPLLFNANNQPKPAYNAVASIIPQSEWGDGNNPA", "soluble on expression in E. coli": "soluble"}, {"sequence": "MGSSHHHHHHSSGLVPRGSHELGGRVSGSLAWRVARGETGLERKEILFIPSENEKISKQFHLRYDIVRDRYIRVSDNNTNISGWENGVWKMESIFRKVEKDWNMVYLARKEGSSFAYISWKFECGSAGLKVDTVSIRTSSQSFESGSVRWKLRSETAQVNLLGDKNLRSYNDFSGATEVTLEAELSRGDGDVAWQHTQLFRQSLNDSGENGLEIIITFNDL", "soluble on expression in E. coli": "soluble"}, {"sequence": "MGSSHHHHHHSSGLVPRGSHMETLCQRLNVCQDKILTHYENDSTDLRDHIDYWKHMRLECAIYYKAREMGFKHINHQVVPTLAVSKNKALQAIELQLTLETIYNSQYSNEKWTLQDVSLEVYLTAPTGCIKKHGYTVEVQFDGDICNTMHYTNWTHIYICEEASVTVVEGQVDYYGLYYVHEGIRTYFVQFKDDAEKYSKNKVWEVHAGGQVILCPTSVFS", "soluble on expression in E. coli": "soluble"}, {"sequence": "MGSSHHHHHHSSGLVPRGSHMGLQDYQRLHKESIEDPAKFFGSKATQFLNWSKPFDKVFIPDPKTGRPSFQNNAWFLNGQLNACYNCVDRHALKTPNKKAIIFEGDEPGQGYSITYKELLEEVCQVAQVLTYSMGVRKGDTVAVYMPMVPEAIITLLAISRIGAIHSVVFAGFSSNSLRDRINDGDSKVVITTDESNRGGKVIETKRIVDDALRETPGVRHVLVYRKTNNPSVAFHAPRDLDWATEKKKYKTYYPCTPVDSEDPLFLLYTSGSTGAPKGVQHSTAGYLLGALLTMRYTFDTHQEDVFFTAGDIGWITGHTYVVYGPLLYGCATLVFEGTPAYPNYSRYWDIIDEHKVTQFYVAPTALRLLKRAGDSYIENHSLKSLRCLGSVGEPIAAEVWEWYSEKIGKNEIPIVDTYWQTESGSHLVTPLAGGVTPMKPGSASFPFFGIDAVVLDPNTGEELNTSHAEGVLAVKAAWPSFARTIWKNHDRYLDTYLNPYPGYYFTGDGAAKDKDGYIWILGRVDDVVNVSGHRLSTAEIEAAIIEDPIVAECAVVGFNDDLTGQAVAAFVVLKNKSSWSTATDDELQDIKKHLVFTVRKDIGPFAAPKLIILVDDLPKTRSGKIMRRILRKILAGESDQLGDVSTLSNPGIVRHLIDSVKL", "soluble on expression in E. coli": "soluble"}, {"sequence": "MGSSHHHHHHSSGLVPRGSHMKNYARISCTSRYVPENCVTNHQLSEMMDTSDEWIHSRTGISERRIVTQENTSDLCHQVAKQLLEKSGKQASEIDFILVATVTPDFNMPSVACQVQGAIGATEAFAFDISAACSGFVYALSMAEKLVLSGRYQTGLVIGGETFSKMLDWTDRSTAVLFGDGAAGVLIEAAETPHFLNEKLQADGQRWAALTSGYTINESPFYQGHKQASKTLQMEGRSIFDFAIKDVSQNILSLVTDETVDYLLLHQANVRIIDKIARKTKISREKFLTNMDKYGNTSAASIPILLDEAVENGTLILGSQQRVVLTGFGGGLTWGSLLLTLEF", "soluble on expression in E. coli": "soluble"}, {"sequence": "MGSSHHHHHHSSGLVPRGSHMLKFDVNTSAVQVLIEHIGNLDRAYEFAERCNEPAVWSQLAKAQLQKGMVKEAIDSYIKADDPSSYMEVVQAANTSGNWEELVKYLQMARKKARESYVETELIFALAKTNRLAELEEFINGPNNAHIQQVGDRCYDEKMYDAAKLLYNNVSNFGRLASTLVHLGEYQAAVDGARKANSTRTWKEVCFACVDGKEFRLAQMCGLHIVVHADELEELINYYQDRGYFEELITMLEAALGLERAHMGMFTELAILYSKFKPQKMREHLELFWSRVNIPKVLRAAEQAHLWAELVFLYDKYEEYDNAIITMMNHPTDAWKEGQFKDIITKVANVELYYRAIQFYLEFKPLLLNDLLMVLSPRLDHTRAVNYFSKVKQLPLVKPYLRSVQNHNNKSVNESLNNLFITEEDYQALRTSIDAYDNFDNISLAQRLEKHELIEFRRIAAYLFKGNNRWKQSVELCKKDSLYKDAMQYASESKDTELAEELLQWFLQEEKRECFGACLFTCYDLLRPDVVLETAWRHNIMDFAMPYFIQVMKEYLTKVDKLDASESLRKEEEQATETQPIVYGQPQLMLTAGPSVAVPPQAPFGYGYTAPAYGQPQPGFGYSM", "soluble on expression in E. coli": "soluble"}, {"sequence": "MGSSHHHHHHSSGLVPRGSHMQIHTLTIRHGRSDPETVRSLLGQDQVLVVDYDAIHHHVINTAEYTYLSHMFDIIVLNLSGKLNDIIDTIMAGAAMVVIDPSVQEKRLREFFDITENIAMPYRGDGHSEAFSQLGGQYFVTDREIGYPFKLAYSTTDISGDRYIRVLDFPQDISDMIFERA", "soluble on expression in E. coli": "soluble"}]}]}
